The source of these data is article doi:10.1101/2021.07.15.452591 (bioRxiv, 2021).

One may read the stoichiometry N as a count of units in the complex or per binding partner.

The series “crystal structure” concerns the molecule itself. Briefly: crystal structure.
The series “dynamic light scattering” concerns the molecule itself. Nature of the series: dynamic light scattering.
The series “SEC” deals with the molecule itself. Nature of the series: SEC.

B1: 2-aminomuconic 6-semialdehyde dehydrogenase (AmnC), wild type (enzyme, Pseudomonas sp. AP-3, UniProt Q9KWS5 1-491, looked up)
chain: MKQYRNFVDGKWVESSKTFQDVTPIDGSVVAVVHEADRDLVDAAVKAGHRALEGEWGRTTAAQRVDWLRRIANEMERRQQDFLDAEMADTGKPLSMAATIDIPRGIANFRNFADILATAPVDSHRLDLPDGAYALNYAARKPLGVVGVISPWNLPLLLLTWKVAPALACGNAVVVKPSEDTPGTATLLAEVMEAVGIPPGVFNLVHGFGPNSAGEFISQHPDISAITFTGESKTGSTIMRAAAEGVKPVSFELGGKNAAVIFADCDFEKMLDGMMRALFLNSGQVCLCSERVYVERPIFDRFCVALAERIKALKVDWPHETDTQMGPLISSKHRDKVLSYFELARQEGATFLAGGGVPRFGDERDNGAWVEPTVIAGLSDDARVVREEIFGPICHVTPFDSESEVIRRANDTRYGLAATIWTTNLSRAHRVSELMRVGISWVNTWFLRDLRTPFGGAGLSGIGREGGMHSLNFYSELTNVCVRIDKESPDV
Turning to B1, the “stoichiometry N” value in the series “crystal structure” came to 4.

B2: AmnC ΔOD2 (S123G, H124G, L425A) (enzyme, Pseudomonas sp. AP-3, UniProt Q9KWS5 1-491, looked up)
chain: MKQYRNFVDGKWVESSKTFQDVTPIDGSVVAVVHEADRDLVDAAVKAGHRALEGEWGRTTAAQRVDWLRRIANEMERRQQDFLDAEMADTGKPLSMAATIDIPRGIANFRNFADILATAPVDGGRLDLPDGAYALNYAARKPLGVVGVISPWNLPLLLLTWKVAPALACGNAVVVKPSEDTPGTATLLAEVMEAVGIPPGVFNLVHGFGPNSAGEFISQHPDISAITFTGESKTGSTIMRAAAEGVKPVSFELGGKNAAVIFADCDFEKMLDGMMRALFLNSGQVCLCSERVYVERPIFDRFCVALAERIKALKVDWPHETDTQMGPLISSKHRDKVLSYFELARQEGATFLAGGGVPRFGDERDNGAWVEPTVIAGLSDDARVVREEIFGPICHVTPFDSESEVIRRANDTRYGLAATIWTTNASRAHRVSELMRVGISWVNTWFLRDLRTPFGGAGLSGIGREGGMHSLNFYSELTNVCVRIDKESPDV
On to B2, for which the “stoichiometry N” value in “dynamic light scattering” was 2; in “SEC”, approximately 2.

B3: AmnC ΔOD1 (Δ124-138 and Δ477-491) (enzyme, Pseudomonas sp. AP-3, UniProt Q9KWS5 1-476, looked up)
chain: MKQYRNFVDGKWVESSKTFQDVTPIDGSVVAVVHEADRDLVDAAVKAGHRALEGEWGRTTAAQRVDWLRRIANEMERRQQDFLDAEMADTGKPLSMAATIDIPRGIANFRNFADILATAPVDSARKPLGVVGVISPWNLPLLLLTWKVAPALACGNAVVVKPSEDTPGTATLLAEVMEAVGIPPGVFNLVHGFGPNSAGEFISQHPDISAITFTGESKTGSTIMRAAAEGVKPVSFELGGKNAAVIFADCDFEKMLDGMMRALFLNSGQVCLCSERVYVERPIFDRFCVALAERIKALKVDWPHETDTQMGPLISSKHRDKVLSYFELARQEGATFLAGGGVPRFGDERDNGAWVEPTVIAGLSDDARVVREEIFGPICHVTPFDSESEVIRRANDTRYGLAATIWTTNLSRAHRVSELMRVGISWVNTWFLRDLRTPFGGAGLSGIGREGGMHSLNFYSE
In the case of B3, the “stoichiometry N” value was 2 in “dynamic light scattering” and approximately 2 in “SEC”.
